The values that follow come from patent publication US20210388112A1.

The target of the assay is T1, peptide containing GA-pyridine (Biotin-Gly-Ala-Gly-(GA-pyridine)-Gly-Ala-CONH2).
T1 chain: GAGXGA
Kind of assay: SPR (Biacore T200), peptide immobilised on sensor chip SA, 25 C. For orientation: SPR reads the build-up and loss of mass on a sensor chip optically.

What is called Kd is the constant that tells how readily two partners part at equilibrium. A low value points to a tighter complex.

B1: cyclic Y9-scFv cyclized by sortase (scFv)
scFv: GGGSHMAQVKLQQSGPSLVKPSQTLSLTCSVTGDSITSGYWNWIRKFPGNKFEYLGYISYSGRTYYNPSLKSRISITRDTSKNQYYLQLNSVTTEDTATYYCSRPYYRYDYAIDYWGQGTTVTVSSGGGGSGGGGSGGGGSDIELTQSPAIMSASLGEQVTMTCTASSSVSSSYLHWYQQKPGSSPKLWIYSTSNLASGVPARFSSSGSGTSYSLTISRMEAEDAATYYCQQSWKAPYTFGGGTKLEIKRAAAGTHHHHHHLPET
modifications: not checked
B1 registered a Kd of 16.1 nM.
